Biological target: human TMEM119 (transmembrane protein 119) (human) (UniProt Q4V9L6)
Test: flow cytometry on primary human brain cell suspensions

Chain of UniProt Q4V9L6 (Q4V9L6 26-283): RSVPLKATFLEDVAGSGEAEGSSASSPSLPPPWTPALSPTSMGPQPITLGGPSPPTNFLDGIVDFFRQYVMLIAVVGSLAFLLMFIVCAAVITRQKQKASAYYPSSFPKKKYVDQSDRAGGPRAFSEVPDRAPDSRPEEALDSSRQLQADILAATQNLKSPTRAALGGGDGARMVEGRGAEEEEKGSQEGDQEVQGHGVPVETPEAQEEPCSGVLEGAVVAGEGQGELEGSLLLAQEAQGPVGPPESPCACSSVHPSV

Work on “Mouse anti-hTMEM119 monoclonal clone A16075D (antibody)” yielded a percent of CD45+/CD11B+ human brain cells stained of 70 to 98%.
